Key:
[1] = biological target: T1, human IGF-1R(1-903)-Fc (human, UniProt P08069 31-933); experiment: blocking ELISA, competitor 320 nM IGF-1
T1 construct: Made by Biogen Idec; also called hIGF-1R-Fc; IGF-1R-Fc

[2] = biological target: T1, human IGF-1R(1-903)-Fc; experiment: blocking ELISA, competitor 640 nM IGF-2
[3] = biological target: T2, hIGF-1R-Fc mutant SD207 (human, UniProt P08069 31-933); experiment: KD grade of mutant hIGF-1R-Fc; S = binding to antibody was ablated by mutation
T2 construct: build as m36 with the substitution; also called G265Y
T2 sequence (P08069 other isoform, or with tags, fused parts or gaps mutant limits assumed): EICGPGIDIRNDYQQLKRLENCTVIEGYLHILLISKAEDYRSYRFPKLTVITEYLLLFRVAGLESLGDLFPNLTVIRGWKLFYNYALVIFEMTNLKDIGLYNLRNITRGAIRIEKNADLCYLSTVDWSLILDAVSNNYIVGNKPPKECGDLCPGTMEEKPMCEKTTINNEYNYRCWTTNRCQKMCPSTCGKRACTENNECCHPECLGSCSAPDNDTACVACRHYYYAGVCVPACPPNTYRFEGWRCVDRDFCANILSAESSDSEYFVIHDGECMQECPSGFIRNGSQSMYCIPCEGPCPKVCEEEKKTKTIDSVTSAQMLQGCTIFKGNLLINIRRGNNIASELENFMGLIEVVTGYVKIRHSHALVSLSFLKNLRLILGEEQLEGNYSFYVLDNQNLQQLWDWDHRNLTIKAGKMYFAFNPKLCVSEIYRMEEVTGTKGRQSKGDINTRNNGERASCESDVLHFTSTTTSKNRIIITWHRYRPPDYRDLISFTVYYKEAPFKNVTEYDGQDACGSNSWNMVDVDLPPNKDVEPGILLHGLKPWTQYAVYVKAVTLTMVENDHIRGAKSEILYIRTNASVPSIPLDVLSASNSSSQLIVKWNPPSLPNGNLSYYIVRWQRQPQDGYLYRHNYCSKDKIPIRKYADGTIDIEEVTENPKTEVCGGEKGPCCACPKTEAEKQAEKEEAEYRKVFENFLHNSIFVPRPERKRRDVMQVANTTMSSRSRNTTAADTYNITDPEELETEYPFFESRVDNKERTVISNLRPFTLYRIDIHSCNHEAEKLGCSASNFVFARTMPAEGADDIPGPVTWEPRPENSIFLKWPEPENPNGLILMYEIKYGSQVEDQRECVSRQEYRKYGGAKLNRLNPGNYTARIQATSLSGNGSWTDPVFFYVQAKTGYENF

[4] = biological target: T3, hIGF-1R-Fc mutant SD203 (human, UniProt P08069 31-933); experiment: as above
T3 construct: build as m36 with the substitution; also called N254A
T3 sequence (P08069 other isoform, or with tags, fused parts or gaps mutant limits assumed): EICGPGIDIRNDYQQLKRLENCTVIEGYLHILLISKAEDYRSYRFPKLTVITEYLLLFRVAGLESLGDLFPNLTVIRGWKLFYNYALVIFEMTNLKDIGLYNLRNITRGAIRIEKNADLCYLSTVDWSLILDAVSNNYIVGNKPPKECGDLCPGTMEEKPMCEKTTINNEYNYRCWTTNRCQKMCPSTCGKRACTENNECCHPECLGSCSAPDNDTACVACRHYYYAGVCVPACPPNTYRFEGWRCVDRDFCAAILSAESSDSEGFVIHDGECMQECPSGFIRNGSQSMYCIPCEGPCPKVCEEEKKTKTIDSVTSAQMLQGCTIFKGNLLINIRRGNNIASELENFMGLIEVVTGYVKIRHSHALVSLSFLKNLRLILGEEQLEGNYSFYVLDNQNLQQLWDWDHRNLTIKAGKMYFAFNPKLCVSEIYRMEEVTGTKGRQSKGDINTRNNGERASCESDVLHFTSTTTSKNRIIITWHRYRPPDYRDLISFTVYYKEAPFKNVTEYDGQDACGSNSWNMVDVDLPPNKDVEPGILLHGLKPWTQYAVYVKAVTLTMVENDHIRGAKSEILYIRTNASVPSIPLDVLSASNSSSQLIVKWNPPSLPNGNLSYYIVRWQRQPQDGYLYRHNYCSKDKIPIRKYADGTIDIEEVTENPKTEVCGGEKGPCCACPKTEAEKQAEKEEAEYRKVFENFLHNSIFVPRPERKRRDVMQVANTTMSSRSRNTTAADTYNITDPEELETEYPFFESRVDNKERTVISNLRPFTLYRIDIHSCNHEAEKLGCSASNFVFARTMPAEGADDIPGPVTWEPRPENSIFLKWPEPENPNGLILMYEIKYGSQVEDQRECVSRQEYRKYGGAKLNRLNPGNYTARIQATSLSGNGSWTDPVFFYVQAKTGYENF

T1 sequence (P08069 31-933): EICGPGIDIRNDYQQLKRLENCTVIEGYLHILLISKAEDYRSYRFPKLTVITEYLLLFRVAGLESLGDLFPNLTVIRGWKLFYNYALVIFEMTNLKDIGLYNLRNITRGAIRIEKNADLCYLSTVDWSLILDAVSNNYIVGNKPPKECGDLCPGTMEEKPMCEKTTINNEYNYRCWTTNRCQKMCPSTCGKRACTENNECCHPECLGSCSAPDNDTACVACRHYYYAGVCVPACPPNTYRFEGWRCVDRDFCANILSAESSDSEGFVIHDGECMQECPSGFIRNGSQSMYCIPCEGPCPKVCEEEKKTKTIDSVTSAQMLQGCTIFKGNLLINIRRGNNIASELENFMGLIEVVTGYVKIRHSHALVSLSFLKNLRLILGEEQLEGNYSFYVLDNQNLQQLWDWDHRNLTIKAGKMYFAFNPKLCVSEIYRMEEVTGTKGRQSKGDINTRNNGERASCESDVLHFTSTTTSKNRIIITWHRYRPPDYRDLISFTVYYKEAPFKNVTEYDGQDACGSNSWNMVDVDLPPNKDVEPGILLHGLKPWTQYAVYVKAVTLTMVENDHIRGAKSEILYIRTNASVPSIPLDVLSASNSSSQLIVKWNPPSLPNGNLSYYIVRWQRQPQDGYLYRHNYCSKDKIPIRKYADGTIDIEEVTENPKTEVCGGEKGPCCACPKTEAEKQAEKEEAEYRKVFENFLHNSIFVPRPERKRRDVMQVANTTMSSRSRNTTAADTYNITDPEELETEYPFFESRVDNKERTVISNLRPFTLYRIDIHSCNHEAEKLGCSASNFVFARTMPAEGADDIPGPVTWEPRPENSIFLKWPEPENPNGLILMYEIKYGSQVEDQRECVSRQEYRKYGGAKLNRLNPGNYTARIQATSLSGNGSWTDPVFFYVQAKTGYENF

% IGF-1 inhibition upon antibody saturation [1]: 38%
% IGF-2 inhibition upon antibody saturation [2]: ~50%
binding result [3]: no binding
binding result [4]: no binding
B1: P1E2 (chimeric antibody) (antibody, V domains shown)
VH: QVQLQQPGAELVKPGASVKLSCKASGYTFTSYWMHWVKQRPGQGLEWIGEINPTYGRSNYNEKFKSKATLTVDKSSSTAYMQLSSLTSEDSAVYYCARLVRLRYFDVWGAGTTVTVSS
VL: DIVMTQAAFSNPVTLGTSASISCRSSKSLLHSNGITYLYWYLQKPGQSPQLLIYQMSNLASGVPDRFSSSGSGTDFTLRISRVEAEDVGVYYCAQNLELPYTFGGGTKLEIK
